From US20210139548A1 (published 2021)
*1 amine or outer side, *2 acyl side, *3 side chain or, on linkers, in order; H or OH if unused. Side-chain parts run from the residue outwards. The star is where a group is joined. C18 diacid = O=C(O)CCCCCCCCCCCCCCCCC(=O)*; γGlu = O=C(O)[C@H](CCC(=O)[*:2])N[*:1]; Isovaleryl = CC(C)CC(=O)*; AEEA = NCCOCCOCC(=O)O

T1: human neuropeptide Y2 receptor (human, UniProt P49146 1-381)
T1 construct: whole, on cells; also called hNPY2 receptor; hNPY2-R
T1 sequence (looked up): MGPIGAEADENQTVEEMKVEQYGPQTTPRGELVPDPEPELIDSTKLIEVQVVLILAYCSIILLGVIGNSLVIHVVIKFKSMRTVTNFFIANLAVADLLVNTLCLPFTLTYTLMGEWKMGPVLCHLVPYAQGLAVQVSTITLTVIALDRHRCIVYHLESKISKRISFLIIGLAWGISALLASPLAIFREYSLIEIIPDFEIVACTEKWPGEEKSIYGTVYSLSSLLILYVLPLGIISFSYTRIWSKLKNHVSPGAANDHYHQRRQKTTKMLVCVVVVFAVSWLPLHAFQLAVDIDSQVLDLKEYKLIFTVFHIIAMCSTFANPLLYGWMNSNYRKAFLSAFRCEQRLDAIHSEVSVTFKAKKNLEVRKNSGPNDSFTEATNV


Target: T1, human neuropeptide Y2 receptor
Assay: radioligand competition (125I-PYY(1-36)), hNPY2R membranes
Summary of the method: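 Commercial human Y2 receptor membranes (0.5 μg protein/well) were incubated with peptide for 2 h at room temperature in 50 mM HEPES, 5 mM MgCl₂, 1 mM CaCl₂, pH 7.4, with 0.2% ovalbumin. Bound radioligand was separated on PEI-soaked GF/C filters and counted by scintillation, and IC₅₀ came from nonlinear sigmoidal regression.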

Binder	Ki [nM]
Isovaleryl-APEK([AEEA-AEEA-γGlu-C18 diacid])PEEDAAPEETQRYYVSLRHYYNWLTRQRY-NH2 (SMILES CC(C)CC(=O)N[C@@H](C)C(=O)N1CCC[C@H]1C(=O)N[C@@H](CCC(=O)O)C(=O)N[C@@H](CCCCNC(=O)COCCOCCNC(=O)COCCOCCNC(=O)CC[C@H](NC(=O)CCCCCCCCCCCCCCCCC(=O)O)C(=O)O)C(=O)N1CCC[C@H]1C(=O)N[C@@H](CCC(=O)O)C(=O)N[C@@H](CCC(=O)O)C(=O)N[C@@H](CC(=O)O)C(=O)N[C@@H](C)C(=O)N[C@@H](C)C(=O)N1CCC[C@H]1C(=O)N[C@@H](CCC(=O)O)C(=O)N[C@@H](CCC(=O)O)C(=O)N[C@H](C(=O)N[C@@H](CCC(N)=O)C(=O)N[C@@H](CCCNC(=N)N)C(=O)N[C@@H](Cc1ccc(O)cc1)C(=O)N[C@@H](Cc1ccc(O)cc1)C(=O)N[C@H](C(=O)N[C@@H](CO)C(=O)N[C@@H](CC(C)C)C(=O)N[C@@H](CCCNC(=N)N)C(=O)N[C@@H](Cc1c[nH]cn1)C(=O)N[C@@H](Cc1ccc(O)cc1)C(=O)N[C@@H](Cc1ccc(O)cc1)C(=O)N[C@@H](CC(N)=O)C(=O)N[C@@H](Cc1c[nH]c2ccccc12)C(=O)N[C@@H](CC(C)C)C(=O)N[C@H](C(=O)N[C@@H](CCCNC(=N)N)C(=O)N[C@@H](CCC(N)=O)C(=O)N[C@@H](CCCNC(=N)N)C(=O)N[C@@H](Cc1ccc(O)cc1)C(N)=O)[C@@H](C)O)C(C)C)[C@@H](C)O) [Compound 35]	1.21
Isovaleryl-APEK([AEEA-AEEA-γGlu-C18 diacid])AEEDAEPEELQRYYVSLRHYYNWLTRQRY-NH2 (SMILES CC(C)CC(=O)N[C@@H](C)C(=O)N1CCC[C@H]1C(=O)N[C@@H](CCC(=O)O)C(=O)N[C@@H](CCCCNC(=O)COCCOCCNC(=O)COCCOCCNC(=O)CC[C@H](NC(=O)CCCCCCCCCCCCCCCCC(=O)O)C(=O)O)C(=O)N[C@@H](C)C(=O)N[C@@H](CCC(=O)O)C(=O)N[C@@H](CCC(=O)O)C(=O)N[C@@H](CC(=O)O)C(=O)N[C@@H](C)C(=O)N[C@@H](CCC(=O)O)C(=O)N1CCC[C@H]1C(=O)N[C@@H](CCC(=O)O)C(=O)N[C@@H](CCC(=O)O)C(=O)N[C@@H](CC(C)C)C(=O)N[C@@H](CCC(N)=O)C(=O)N[C@@H](CCCNC(=N)N)C(=O)N[C@@H](Cc1ccc(O)cc1)C(=O)N[C@@H](Cc1ccc(O)cc1)C(=O)N[C@H](C(=O)N[C@@H](CO)C(=O)N[C@@H](CC(C)C)C(=O)N[C@@H](CCCNC(=N)N)C(=O)N[C@@H](Cc1c[nH]cn1)C(=O)N[C@@H](Cc1ccc(O)cc1)C(=O)N[C@@H](Cc1ccc(O)cc1)C(=O)N[C@@H](CC(N)=O)C(=O)N[C@@H](Cc1c[nH]c2ccccc12)C(=O)N[C@@H](CC(C)C)C(=O)N[C@H](C(=O)N[C@@H](CCCNC(=N)N)C(=O)N[C@@H](CCC(N)=O)C(=O)N[C@@H](CCCNC(=N)N)C(=O)N[C@@H](Cc1ccc(O)cc1)C(N)=O)[C@@H](C)O)C(C)C) [Compound 36]	10.6

The remaining lines, values ahead:

Ki [nM]	Binder
1.21	Isovaleryl-APEK([AEEA-AEEA-γGlu-C18 diacid])PEEDATPEETQRYYVSLRHYYNWLTRQRY-NH2 (SMILES CC(C)CC(=O)N[C@@H](C)C(=O)N1CCC[C@H]1C(=O)N[C@@H](CCC(=O)O)C(=O)N[C@@H](CCCCNC(=O)COCCOCCNC(=O)COCCOCCNC(=O)CC[C@H](NC(=O)CCCCCCCCCCCCCCCCC(=O)O)C(=O)O)C(=O)N1CCC[C@H]1C(=O)N[C@@H](CCC(=O)O)C(=O)N[C@@H](CCC(=O)O)C(=O)N[C@@H](CC(=O)O)C(=O)N[C@@H](C)C(=O)N[C@H](C(=O)N1CCC[C@H]1C(=O)N[C@@H](CCC(=O)O)C(=O)N[C@@H](CCC(=O)O)C(=O)N[C@H](C(=O)N[C@@H](CCC(N)=O)C(=O)N[C@@H](CCCNC(=N)N)C(=O)N[C@@H](Cc1ccc(O)cc1)C(=O)N[C@@H](Cc1ccc(O)cc1)C(=O)N[C@H](C(=O)N[C@@H](CO)C(=O)N[C@@H](CC(C)C)C(=O)N[C@@H](CCCNC(=N)N)C(=O)N[C@@H](Cc1c[nH]cn1)C(=O)N[C@@H](Cc1ccc(O)cc1)C(=O)N[C@@H](Cc1ccc(O)cc1)C(=O)N[C@@H](CC(N)=O)C(=O)N[C@@H](Cc1c[nH]c2ccccc12)C(=O)N[C@@H](CC(C)C)C(=O)N[C@H](C(=O)N[C@@H](CCCNC(=N)N)C(=O)N[C@@H](CCC(N)=O)C(=O)N[C@@H](CCCNC(=N)N)C(=O)N[C@@H](Cc1ccc(O)cc1)C(N)=O)[C@@H](C)O)C(C)C)[C@@H](C)O)[C@@H](C)O) [Compound 40]
4.85	Isovaleryl-APEK([AEEA-AEEA-γGlu-C18 diacid])PEEDASPEETQRYEVSLRHYYNWLTRQRY-NH2 (SMILES CC(C)CC(=O)N[C@@H](C)C(=O)N1CCC[C@H]1C(=O)N[C@@H](CCC(=O)O)C(=O)N[C@@H](CCCCNC(=O)COCCOCCNC(=O)COCCOCCNC(=O)CC[C@H](NC(=O)CCCCCCCCCCCCCCCCC(=O)O)C(=O)O)C(=O)N1CCC[C@H]1C(=O)N[C@@H](CCC(=O)O)C(=O)N[C@@H](CCC(=O)O)C(=O)N[C@@H](CC(=O)O)C(=O)N[C@@H](C)C(=O)N[C@@H](CO)C(=O)N1CCC[C@H]1C(=O)N[C@@H](CCC(=O)O)C(=O)N[C@@H](CCC(=O)O)C(=O)N[C@H](C(=O)N[C@@H](CCC(N)=O)C(=O)N[C@@H](CCCNC(=N)N)C(=O)N[C@@H](Cc1ccc(O)cc1)C(=O)N[C@@H](CCC(=O)O)C(=O)N[C@H](C(=O)N[C@@H](CO)C(=O)N[C@@H](CC(C)C)C(=O)N[C@@H](CCCNC(=N)N)C(=O)N[C@@H](Cc1c[nH]cn1)C(=O)N[C@@H](Cc1ccc(O)cc1)C(=O)N[C@@H](Cc1ccc(O)cc1)C(=O)N[C@@H](CC(N)=O)C(=O)N[C@@H](Cc1c[nH]c2ccccc12)C(=O)N[C@@H](CC(C)C)C(=O)N[C@H](C(=O)N[C@@H](CCCNC(=N)N)C(=O)N[C@@H](CCC(N)=O)C(=O)N[C@@H](CCCNC(=N)N)C(=O)N[C@@H](Cc1ccc(O)cc1)C(N)=O)[C@@H](C)O)C(C)C)[C@@H](C)O) [Compound 37]
5.92	Isovaleryl-APEK([AEEA-AEEA-γGlu-C18 diacid])PEEAASPEELQRYYVSTRHYYNWLTRQRY-NH2 (SMILES CC(C)CC(=O)N[C@@H](C)C(=O)N1CCC[C@H]1C(=O)N[C@@H](CCC(=O)O)C(=O)N[C@@H](CCCCNC(=O)COCCOCCNC(=O)COCCOCCNC(=O)CC[C@H](NC(=O)CCCCCCCCCCCCCCCCC(=O)O)C(=O)O)C(=O)N1CCC[C@H]1C(=O)N[C@@H](CCC(=O)O)C(=O)N[C@@H](CCC(=O)O)C(=O)N[C@@H](C)C(=O)N[C@@H](C)C(=O)N[C@@H](CO)C(=O)N1CCC[C@H]1C(=O)N[C@@H](CCC(=O)O)C(=O)N[C@@H](CCC(=O)O)C(=O)N[C@@H](CC(C)C)C(=O)N[C@@H](CCC(N)=O)C(=O)N[C@@H](CCCNC(=N)N)C(=O)N[C@@H](Cc1ccc(O)cc1)C(=O)N[C@@H](Cc1ccc(O)cc1)C(=O)N[C@H](C(=O)N[C@@H](CO)C(=O)N[C@H](C(=O)N[C@@H](CCCNC(=N)N)C(=O)N[C@@H](Cc1c[nH]cn1)C(=O)N[C@@H](Cc1ccc(O)cc1)C(=O)N[C@@H](Cc1ccc(O)cc1)C(=O)N[C@@H](CC(N)=O)C(=O)N[C@@H](Cc1c[nH]c2ccccc12)C(=O)N[C@@H](CC(C)C)C(=O)N[C@H](C(=O)N[C@@H](CCCNC(=N)N)C(=O)N[C@@H](CCC(N)=O)C(=O)N[C@@H](CCCNC(=N)N)C(=O)N[C@@H](Cc1ccc(O)cc1)C(N)=O)[C@@H](C)O)[C@@H](C)O)C(C)C) [Compound 42]
